In one assay the target is calmodulin (Bos taurus) (UniProt P62157). Particulars: cited from earlier work.
For assay [1], the target named is light-activated unphosphorylated rhodopsin (UniProt P02699 1-348, light-activated).

The Kd is the equilibrium constant for the complex coming apart.

Sequence of light-activated unphosphorylated rhodopsin (P02699 whole entry): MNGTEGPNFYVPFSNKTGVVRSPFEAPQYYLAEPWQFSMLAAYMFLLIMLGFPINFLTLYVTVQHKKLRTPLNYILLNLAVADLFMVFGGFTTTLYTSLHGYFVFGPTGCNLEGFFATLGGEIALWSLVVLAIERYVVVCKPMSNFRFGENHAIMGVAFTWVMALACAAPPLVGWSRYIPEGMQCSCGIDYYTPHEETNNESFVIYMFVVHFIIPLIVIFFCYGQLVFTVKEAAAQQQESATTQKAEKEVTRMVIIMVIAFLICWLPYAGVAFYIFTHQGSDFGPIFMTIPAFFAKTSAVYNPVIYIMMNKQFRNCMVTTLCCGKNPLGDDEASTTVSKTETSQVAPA

Consider arrestin-1 (from UniProt P08168), for which the Kd with calmodulin (Bos taurus) is 7 µM.

B1: arrestin-1 3A+R175E combination mutant (natural protein, UniProt P08168 1-404, looked up)
chain: MKANKPAPNHVIFKKISRDKSVTIYLGKRDYIDHVERVEPVDGVVLVDPELVKGKRVYVSLTCAFRYGQEDIDVMGLSFRRDLYFSQVQVFPPVGASGATTRLQESLIKKLGANTYPFLLTFPDYLPCSVMLQPAPQDVGKSCGVDFEIKAFATHSTDVEEDKIPKKSSVRLLIEKVQHAPRDMGPQPRAEASWQFFMSDKPLRLAVSLSKEIYYHGEPIPVTVAVTNSTEKTVKKIKVLVEQVTNVVLYSSDYYIKTVAAEEAQEKVPPNSSLTKTLTLVPLLANNRERRGIALDGKIKHEDTNLASSTIIKEGIDKTVMGILVSYQIKVKLTVSGLLGELTSSEVATEVPFRLMHPQPEDPDTAKESFQDENAAAEEFARQNLKDAGEYKEEKTDQEAAMDE
As to B1, in assay [1], the “percent of the maximum binding achieved at 37°C” value was found to be 26%.

(Values after publication PMC3196764 (Progress in retinal and eye research, 2011).)
